Measurements: patent US8728754B1, “Use of proteins isolated from Pseudomonas to control molluscs” (priority 2013, dated 2014)

System: mussels
Assay: Mussel bioassay in scintillation vials
Assay type: in vivo
Experimental: Mussel bioassays were performed in twenty milliliter scintillation vials. Ten small mussels (approximately 1 cm long) were incubated in the mussel water (10 mL) for 24 hr first, then the mussel water (10 mL) was changed freshly before test cell lysis was added. Cell lysis or proteins (maximal 500 μL) was added into each vial. After 24 hr, the mussel water with cell lysis or proteins was changed with clean mussel water. Then, mussel water was changed every 24 hr with clean mussel water. Dead mussels were taken away every day and mussel mortality was calculated by number of dead mussel divided by the number of total mussels.

B1: dihydrolipoamide dehydrogenase (protein, UniProt P14218 2-478, looked up)
Dihydrolipoyl dehydrogenase: SQKFDVVVIGAGPGGYVAAIRAAQLGLKTACIEKYIGKEGKVALGGTCLNVGCIPSKALLDSSYKYHEAKEAFKVHGIEAKGVTIDVPAMVARKANIVKNLTGGIATLFKANGVTSFEGHGKLLANKQVEVTGLDGKTQVLEAENVIIASGSRPVEIPPAPLSDDIIVDSTGALEFQAVPKKLGVIGAGVIGLELGSVWARLGAEVTVLEALDKFLPAADEQIAKEALKVLTKQGLNIRLGARVTASEVKKKQVTVTFTDANGEQKETFDKLIVAVGRRPVTTDLLAADSGVTLDERGFIYVDDHCKTSVPGVFAIGDVVRGAMLAHKASEEGVMVAERIAGHKAQMNYDLIPSVIYTHPEIAWVGKTEQTLKAEGVEVNVGTFPFAASGRAMAANDTTGLVKVIADAKTDRVLGVHVIGPSAAELVQQGAIGMEFGTSAEDLGMMVFSHPTLSEALHEAALAVNGHAIHIANRKKR
notes: Molluscicidal protein isolated from Pseudomonas CL145A, identified as dihydrolipoamide dehydrogenase
B1 was tested, and the “Mussel mortality at 7th day” value (5 ppm, 7th day) was 50% and the “Activity in mussel bioassay of proteins and fractions dosed after gel analysis” value (in vivo) was “active”.
